Reference: PMC10086585

Molecular target: recombinant human netrin‐1 (R&D), on HIS1K biosensors (human) (UniProt O95631)
Experiment: BLI; netrin-1 on HIS1K biosensors; m-Laminin-I at 3.12-100 nM; 30°C, 1,000 rpm; PBS, 0.02% Tween-20, 0.1% BSA; 5 min association, 5 min dissociation

- Kd: 29.5 nM
Substance: mouse laminin‐I (complex)
